Test results reported in article PMC7037359.

Molecular target: Human recombinant ADAM17 (human) (UniProt P78536)
UniProt P78536, sequence (P78536 18-824): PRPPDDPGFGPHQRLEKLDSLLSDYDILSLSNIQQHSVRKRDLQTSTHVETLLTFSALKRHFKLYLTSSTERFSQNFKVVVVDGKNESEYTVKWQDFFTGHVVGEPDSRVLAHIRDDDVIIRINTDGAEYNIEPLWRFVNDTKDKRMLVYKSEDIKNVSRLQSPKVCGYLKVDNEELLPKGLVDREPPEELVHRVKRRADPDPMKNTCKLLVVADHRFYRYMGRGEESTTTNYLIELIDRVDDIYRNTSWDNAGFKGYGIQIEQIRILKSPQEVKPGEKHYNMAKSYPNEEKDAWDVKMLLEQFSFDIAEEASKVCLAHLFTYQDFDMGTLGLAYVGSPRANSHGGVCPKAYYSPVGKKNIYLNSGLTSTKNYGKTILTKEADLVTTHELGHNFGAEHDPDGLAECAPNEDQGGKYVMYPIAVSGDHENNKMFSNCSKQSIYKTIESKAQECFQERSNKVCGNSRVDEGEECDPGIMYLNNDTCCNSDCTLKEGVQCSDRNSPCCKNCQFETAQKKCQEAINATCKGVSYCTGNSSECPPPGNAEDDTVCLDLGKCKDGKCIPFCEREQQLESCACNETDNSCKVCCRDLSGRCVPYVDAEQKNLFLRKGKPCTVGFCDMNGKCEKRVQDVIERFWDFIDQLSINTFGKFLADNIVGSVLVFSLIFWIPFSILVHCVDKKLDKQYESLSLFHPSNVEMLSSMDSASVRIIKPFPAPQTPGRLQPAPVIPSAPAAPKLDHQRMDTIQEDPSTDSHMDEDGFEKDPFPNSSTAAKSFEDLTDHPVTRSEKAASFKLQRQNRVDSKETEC

Km of the ADAM17-catalysed cleavage of the fluorogenic substrate (Lineweaver–Burk plot), control without E144: 580 µM
Km of the ADAM17-catalysed cleavage of the fluorogenic substrate (Lineweaver–Burk plot), in the presence of 5 μM E144: 20 µM
Substance: Mca-KPLGL-Dpa-AR-NH2, fluorogenic ADAM17 substrate (peptide)
